Test results as given in patent US20130315920A1, “Cross Protective Epitopes of Aspergillus Fumigatus and Candida Albicans” (Cell Medica Limited, priority 2010, published 2013).

Legend:
[1] = target: recombinant A. fumigatus secreted protein peptidase (Aspergillus fumigatus)
[2] = target: recombinant A. fumigatus Crf1 protein with FLAG-Tag (Aspergillus fumigatus)
HLA-DRB1*03, 04 and 13 = experiment: Minimal epitope analysis with 11-mer peptides; format: cell-based, human; details: data not shown
Description: To evaluate the utility of the Crf1 p41 epitope for potential clinical application, we defined the HLA restriction of Crf1 p41-specific CD4^+ T clones from different donors by stimulation with peptide-pulsed partially matched LCLs. […] As presentation of the Crf1 p41 peptide could also be mediated by other MHC class II alleles, we verified the HLA restriction by stimulation of PBMC from additional donors.
A peptide library covering the complete Crf1 sequence consisting of 94 15-mer peptides overlapping by […] (aa) was divided into sub-pools of 10 peptides and 94 single peptides (p1-p94) (PANATecs). 3 11-mer peptides of p40/41 overlapping by 2aa ([…], […], HTYTIDWTKDA) were obtained from JPT Peptide Technologies.

[3] = target: PE-conjugated Crf1 p41-specific HLA-DRB1*0401 MHC class II tetramer (Aspergillus fumigatus; human); experiment: flow cytometry, tetramer staining of T-cell lines expanded for 14 days
C. albicans = experiment: Vaccination of mice before intragastric C. albicans infection; format: in vivo, BALB/c mice
Description: A. fumigatus Crf1 protein mediates cross-protection to C. albicans. Mice were injected intranasally with resting A. fumigatus conidia 14 days before infection, or with purified Crf1 protein and murine CpG oligodeoxynucleotide 1862 14, 7 and 3 days before intragastric infection with C. albicans. Note (a) the reduced inflammatory cell recruitment and acanthosis in mice vaccinated with A. fumigatus conidia or Crf1 protein as opposed to control mice shown in FIG. 5a and c and (b) the increase in protective TH1 and regulatory T-cell transcription factors and cytokine levels. Shown are fungal growth (CFU/organ, mean±SE), stomach histology and transcription factor and cytokine mRNA expression in CD4^+ T-cells from mesenteric lymph nodes a week after infection with C. albicans. Shown are results pooled from 2 experiments (6 animals/group). Bars indicate SE. P, vaccinated animals versus control. (c) Proliferation of purified CD4^+ spleen cells from untreated mice or animals vaccinated with A. fumigatus or C. albicans in response to control DC, anti-CD3E antibody, heat-inactivated A. fumigatus or C. albicans or A. fumigatus Crf1 p41 and p22 peptide. The results are expressed as mean cpm±SEM of triplicate cultures. P, stimulated versus control DC.
Mice were infected with 2×10^7 resting A. fumigatus conidia intranasally^7,45 and with 10^8C. albicans intragastrically^13. For co-infection, mice were infected a week before the subsequent infection. In the vaccination model, mice were injected intranasally with 2×10^7 Aspergillus resting conidia/20 μl saline once, 14d before infection, or with 5 μg purified Crf1p antigen^7 and 10 nM murine CpG oligodeoxynucleotide 1862, administered 14 d, 7 d and 3 d before intragastric C. albicans infection^7. Mice were monitored for survival (MST, days) and fungal growth (CFU/organ expressed as mean±SE). Mice dying of fungal challenge routinely underwent necropsy for histopathological confirmation of infection^7. […]

[4] = tested on: T-cell lines from PBMC of healthy donors; experiment: IFN-γ ELISA of T-cell lines stimulated with recombinant A. fumigatus proteins; format: cell-based, human; details: 5 μg/ml protein
Description: As the identification of potential protective fungal antigens is rather intricate due to the extensiveness of fungal genomes, we analyzed 6 different A. fumigatus recombinant proteins based on their previously reported immunogeneic reactivity in mice and humans^7,10. […] By contrast, GPI-anchored extracellular cell wall glucanase Crf1 and secreted protein peptidase induced high IFN-γ in 6 of 7 and 5 of 10 tested donors, respectively. The response was mediated by CD4^+ TH1 cells, as MHC class II blocking antibody nearly abrogated IFN-γ release (data not shown). Due to the broad response and the sequence similarity to the C. albicans orthologue Crh1, we focused in subsequent experiments on the protein Crf1. By epitope mapping of 7 healthy individuals with different MHC class II alleles, we identified 10 potential candidate epitopes (Table 1). Based on the results obtained by epitope mapping, the probability of antigen presentation by certain MHC class II alleles assessed by epitope prediction^11, previously reported immunogeneic reactivity^12 and sequence similarity to the C. albicans homologue Crh1, we then generated CD4^+ TH1 T-cell clones specific for the peptides p1, p22, p27, p41, p48, p59, p69 and p84 (FIG. 1a and Table 1).
A. fumigatus superoxide dismutase^34, catalase^35, peptidase^36 and 1,3-beta-glucanosyl-transferase Gel1^30 were produced in the yeast Pichia pastoris as described^37. Extracellular cell wall glucanase Crf1^37 (cDNA provided by Utz Reichard) and the major allergen and cytotoxin AspF1^10 were expressed with FLAG-Tags in the human cell line phoenix GALV^38.
For analysis of recombinant proteins and epitope mapping, T-cell lines were generated by incubation of 1×10^7 PBMC per well in 6-well cell culture plates with 5 μg/ml protein or peptide for 7d in the presence of 5 U/ml IL-2 (Proleukin, Chiron). Antigen specificity was analyzed by IFN-γ ELISA^42 after restimulation with autologous monocytes incubated overnight with 5 μg/ml protein in a responder to stimulator (R:S) ratio of 5:1. Epitope mapping was performed by IFN-γ ELISPOT^39 after stimulation with peptide-pulsed autologous DC at a R:S ratio of 10:1.

Molecule: T-cell lines from PBMC of healthy donors, raised with the respective recombinant A. fumigatus protein (cells without a defined receptor)
- IFN-γ (ELISA) (of 10 tested donors) [1]: 5
- IFN-γ (ELISA) (of 7 tested donors) [2]: 6

Molecule: HTYTIDWTKDA (peptide of A. fumigatus Crf1)
- Minimal epitope (HLA-DRB1*03, 04 and 13): is the minimal epitope of Crf1 p41 for all 3 HLA alleles

Molecule: Crf1 p41-specific CD4^+ T-cell lines expanded for 14 days (cells without a defined receptor)
- frequency of antigen-specific cells as determined by tetramer (median) [3]: 50.6%

B1: Crf1: recombinant A. fumigatus GPI-anchored extracellular cell wall glucanase Crf1; given with CpG oligodeoxynucleotide 1862 in mice (protein)
chain: QTWSKCNPLEKTCPPNKGLAASTYTADFTSASALDQWEVTAGKVPVGPQGAEFTVAKQGDAPTIDTDFYFFFGKAEVVMKAAPGTGVVSSIVLESDDLDEVDWEVLGGDTTQVQTNYFGKGDTTTYDRGTYVPVATPQETFHTYTIDWTKDAVTWSIDGAVVRTLTYNDAKGGTRFPQTPMRLRLGSWAGGDPSNPKGTIEWAGGLTDYSAGPYTMYVKSVRIENANPAESYTYSDNSGSWQSIKFDGSVDISSSSSVTSSTTSTASSASSTSSKTPSTSTLATSTKATPTPSGTSSGSNSSSSAEPTTTGGTGSSNTGSGSGSGSGSGSSSSTGSSTSAGASATPELSQG
- Tbet/Foxp3 CD4+ T-cells and cytokines in mesenteric lymph nodes (C. albicans; a week after infection with C. albicans): activation of Tbet^+/Foxp3^+ CD4^+T-cells and their respective cytokines, IFN-γ and IL-10, in mesenteric lymph nodes
- Protection against lethal infection (C. albicans; vaccinated mice): protected against lethal infection with C. albicans
- Fungal burden and inflammatory pathology in the stomach (C. albicans; vaccination intranasally before intragastric C. albicans infection, Crf1 protein with CpG as adjuvant): both vaccination strategies reduced the fungal burden and inflammatory pathology in the stomach of mice with candidiasis
- donors with high IFN-γ of tested donors [4]: 6 of 7
